Measurements as given in patent US20240075096A1, “ANTIMICROBIAL PEPTIDE LIQUID COMPOSITION AND FORMULATION THEREOF” (priority 2021, published 2024).
Values after ≈ are worked out from the molar mass of the structure shown.

Legend:
[1] = system: Staphylococcus aureus ATCC29213; experiment: In vitro bacteriostatic and bactericidal tests (MIC, MBC); assay type: cell-based; settings: standard strain ATCC29213
[2] = system: methicillin-resistant Staphylococcus aureus (MRSA) clinical isolates; experiment: as above; assay type: cell-based; settings: MRSA clinical strains
[3] = system: Methicillin-sensitive Staphylococcus aureus (MSSA) clinical isolates; experiment: as above; assay type: cell-based; settings: MSSA clinical strains
[4] = system: Methicillin-resistant coagulase-negative Staphylococcus (MRSCNS) clinical isolates; experiment: as above; assay type: cell-based; settings: MRSCNS clinical strains
[5] = system: Methicillin-sensitive coagulase-negative Staphylococcus (MSSCNS) clinical isolates; experiment: as above; assay type: cell-based; settings: MSSCNS clinical strains
[6] = Stability investigation of antimicrobial peptide compositions (trait, related substances and content by HPLC); assay type: physicochemical
[7] = 4° C., 0 days, peptide 2‰, stabilizer 1% (Table 2)
[8] = 4° C., 6 months, peptide 2‰, stabilizer 1% (Table 2)
[9] = 4° C., 12 months, peptide 2‰, stabilizer 1% (Table 2)
[10] = 4° C., 24 months, peptide 2‰, stabilizer 1% (Table 2)
[11] = 4° C., 36 months, peptide 2‰, stabilizer 1% (Table 2)
[12] = 25° C., 0 days, different mannitol systems (Table 3)
[13] = 25° C., 0 days, peptide 2‰, stabilizer 1% (Table 1)
[14] = 25° C., 1 month, peptide 2‰, stabilizer 1% (Table 1)
[15] = 25° C., 3 months, different mannitol systems (Table 3)
[16] = 25° C., 3 months, peptide 2‰, stabilizer 1% (Table 1)
[17] = 25° C., 6 months, different mannitol systems (Table 3)
[18] = 25° C., 6 months, peptide 2‰, stabilizer 1% (Table 1)

Compound: CN[C@H](CC(C)C)C(=O)N[C@H]1C(=O)N[C@@H](CC(N)=O)C(=O)N[C@H]2C(=O)N[C@H]3C(=O)N[C@H](C(=O)N[C@H](C(=O)O)c4cc(O)cc(O)c4-c4cc3ccc4O)[C@H](O)c3ccc(c(Cl)c3)Oc3cc2cc(c3O[C@@H]2O[C@H](CO)[C@@H](O)[C@H](O)[C@H]2O[C@H]2C[C@](C)(N)[C@H](O)[C@H](C)O2)Oc2ccc(cc2Cl)[C@H]1O [Vancomycin, vancomycin]
- MBC Concentration Range [1]: 4 µg/mL (≈ 2.76 µM)
- MIC Concentration Range [1]: 1 µg/mL (≈ 0.69 µM)
- MIC Concentration Range [2]: 0.5 to 4 µg/mL
- MIC Concentration Range [3]: 0.5 to 4 µg/mL
- MIC Concentration Range [4]: 0.5 to 4 µg/mL
- MIC Concentration Range [5]: 0.5 to 4 µg/mL

Compound: KWKSFLKTFKSAAKTVLHTALKAISS [antimicrobial peptide, tested alone as aqueous solution without stabilizer]
- Content [6, 7]: 99.87%
- Largest Single Impurity (Related Substance) [6, 7]: 0.19%
- Total Impurities (Related Substance) [6, 7]: 0.32%
- Trait [6, 7]: colorless clear liquid
- Content [6, 8]: 97.51%
- Largest Single Impurity (Related Substance) [6, 8]: 0.27%
- Total Impurities (Related Substance) [6, 8]: 0.58%
- Trait [6, 8]: colorless transparent
- Content [6, 9]: 94.51%
- Largest Single Impurity (Related Substance) [6, 9]: 0.32%
- Total Impurities (Related Substance) [6, 9]: 0.68%
- Trait [6, 9]: colorless transparent
- Content [6, 10]: 85.57%
- Largest Single Impurity (Related Substance) [6, 10]: 0.72%
- Total Impurities (Related Substance) [6, 10]: 2.01%
- Trait [6, 10]: colorless transparent
- Content [6, 11]: 76.55%
- Largest Single Impurity (Related Substance) [6, 11]: 0.96%
- Total Impurities (Related Substance) [6, 11]: 3.02%
- Trait [6, 11]: colorless transparent
- Content [6, 12]: 100.12%
- Largest Single Impurity (Related Substance) [6, 12]: 0.16%
- Total Impurities (Related Substance) [6, 12]: 0.30%
- Trait [6, 12]: colorless
- Content [6, 13]: 99.87%
- Largest Single Impurity (Related Substance) [6, 13]: 0.19%
- Total Impurities (Related Substance) [6, 13]: 0.32%
- Trait [6, 13]: colorless clear liquid
- Content [6, 14]: 98.51%
- Largest Single Impurity (Related Substance) [6, 14]: 0.25%
- Total Impurities (Related Substance) [6, 14]: 0.53%
- Trait [6, 14]: colorless transparent
- Content [6, 15]: 98.42%
- Largest Single Impurity (Related Substance) [6, 15]: 0.26%
- Total Impurities (Related Substance) [6, 15]: 0.55%
- Trait [6, 15]: colorless
- Content [6, 16]: 88.57%
- Largest Single Impurity (Related Substance) [6, 16]: 0.68%
- Total Impurities (Related Substance) [6, 16]: 1.96%
- Trait [6, 16]: colorless transparent
- Content [6, 17]: 87.67%
- Largest Single Impurity (Related Substance) [6, 17]: 0.85%
- Total Impurities (Related Substance) [6, 17]: 1.99%
- Trait [6, 17]: colorless
- Content [6, 18]: 78.88%
- Largest Single Impurity (Related Substance) [6, 18]: 0.98%
- Total Impurities (Related Substance) [6, 18]: 3.16%
- Trait [6, 18]: colorless transparent
